Assay results from the supplement of paper PMC10724198.
± gives the standard deviation of the averaged measurements.

System: Saccharomyces cerevisiae
Assay: protein stability index of tFT-peptide fusion (C-terminal peptide) (PSI (0-1 scale)); higher = more stable (slower turnover)
Settings: temperature: 30 C
Method: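 MPS profiling in S. cerevisiae of the yeast C-terminome library: the last 12 aa of each annotated ORF are fused to the C-terminus of a sfGFP-mCherry timer, after a GGGS linker. Cells are FACS-sorted into 8 mCherry/sfGFP bins and deep-sequenced. PSI runs from 0 (unstable) to 1 (stable); wild type and das1Δ backgrounds, two technical replicates each.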

[1] = genetic background: das1 deletion

VKQMRKKKDKGD [MSB3 C-terminal 12 aa]
protein stability index [1]: 0.688 ± 0.0093
protein stability index (genetic background: wild type): 0.691 ± 0.042

LLEDLRSRIDLD [MLO50 C-terminal 12 aa]
protein stability index [1]: 0.685 ± 0.048
protein stability index (genetic background: wild type): 0.744 ± 0.087

ASRFAQFLKQDA [MET16 C-terminal 12 aa]
protein stability index [1]: 0.717 ± 0.012
protein stability index (genetic background: wild type): 0.764 ± 0.15

LVSNSDTNIVWP [YMR247W-A C-terminal 12 aa]
protein stability index [1]: 0.68696 ± 0.00059
protein stability index (genetic background: wild type): 0.712 ± 0.015

LMVPDPWYREGN [FAB1 C-terminal 12 aa]
protein stability index [1]: 0.726 ± 0.018
protein stability index (genetic background: wild type): 0.721 ± 0.031

VVAQKPKLPYTK [YBR225W C-terminal 12 aa]
protein stability index [1]: 0.694 ± 0.026
protein stability index (genetic background: wild type): 0.725 ± 0.066

KTGKKNKVAKKN [SRP14 C-terminal 12 aa]
protein stability index [1]: 0.682 ± 0.0078
protein stability index (genetic background: wild type): 0.692 ± 0.021

SEGLQFLQREKK [MSE1 C-terminal 12 aa]
protein stability index [1]: 0.711 ± 0.011
protein stability index (genetic background: wild type): 0.681 ± 0.011

PLGVQFLDTFRR [DSC2 C-terminal 12 aa]
protein stability index [1]: 0.718 ± 0.013
protein stability index (genetic background: wild type): 0.736 ± 0.051

VVNKYLKENGYY [APE2 C-terminal 12 aa]
protein stability index [1]: 0.705 ± 0.02
protein stability index (genetic background: wild type): 0.6615 ± 0.0031

KRAENNAQKKTN [ERG25 C-terminal 12 aa]
protein stability index [1]: 0.689 ± 0.019
protein stability index (genetic background: wild type): 0.495 ± 0.0083

TLSMYPRRRFYH [GPG1 C-terminal 12 aa]
protein stability index [1]: 0.709 ± 0.011
protein stability index (genetic background: wild type): 0.608 ± 0.043

DEDDDEDVTDQE [DLS1 C-terminal 12 aa]
protein stability index [1]: 0.6663 ± 0.004
protein stability index (genetic background: wild type): 0.677 ± 0.013

NSNKKKGFKSRR [DRS1 C-terminal 12 aa]
protein stability index [1]: 0.682 ± 0.017
protein stability index (genetic background: wild type): 0.732 ± 0.0088

EVLDQLEPQDSS [MCM6 C-terminal 12 aa]
protein stability index [1]: 0.699 ± 0.019
protein stability index (genetic background: wild type): 0.6847 ± 0.0064

IGKQKCFIIEMR [MSY1 C-terminal 12 aa]
protein stability index [1]: 0.6688 ± 0.00094
protein stability index (genetic background: wild type): 0.679 ± 0.0098

CIPLINYHLRKS [CBS1 C-terminal 12 aa]
protein stability index [1]: 0.709 ± 0.022
protein stability index (genetic background: wild type): 0.673 ± 0.023

LDIFCLIFRKRT [YPR076W C-terminal 12 aa]
protein stability index [1]: 0.508 ± 0.031
protein stability index (genetic background: wild type): 0.5061 ± 0.00095

NSLTSLSIYAFL [YEL018C-A C-terminal 12 aa]
protein stability index [1]: 0.7094 ± 0.0019
protein stability index (genetic background: wild type): 0.685 ± 0.022

NFTTNEYFIHTS [YNL226W C-terminal 12 aa]
protein stability index [1]: 0.7352 ± 0.0013
protein stability index (genetic background: wild type): 0.737 ± 0.018

LADLRVYLRVPG [YGL088W C-terminal 12 aa]
protein stability index [1]: 0.565 ± 0.021
protein stability index (genetic background: wild type): 0.568 ± 0.013

HCTVVLPSILKR [YHR217C C-terminal 12 aa]
protein stability index [1]: 0.714 ± 0.024
protein stability index (genetic background: wild type): 0.705 ± 0.0033

NGNNVASLNTKK [TAF12 C-terminal 12 aa]
protein stability index [1]: 0.6865 ± 0.0016
protein stability index (genetic background: wild type): 0.664 ± 0.011

RLGDVLHVCCPS [YHL049C C-terminal 12 aa]
protein stability index [1]: 0.717 ± 0.03
protein stability index (genetic background: wild type): 0.7 ± 0.097

EMEKNKLKRKRN [YNG2 C-terminal 12 aa]
protein stability index [1]: 0.668 ± 0.054
protein stability index (genetic background: wild type): 0.699 ± 0.014

RLAKKVARRNAD [RPS24A C-terminal 12 aa]
protein stability index [1]: 0.693 ± 0.0097
protein stability index (genetic background: wild type): 0.683 ± 0.024

IRMYLGSSLDIE [SRX1 C-terminal 12 aa]
protein stability index [1]: 0.69 ± 0.013
protein stability index (genetic background: wild type): 0.6815 ± 0.0061

ARMLARECRRHM [CDC23 C-terminal 12 aa]
protein stability index [1]: 0.7022 ± 0.00087
protein stability index (genetic background: wild type): 0.698 ± 0.054

SVSVQVKWLYSA [YER107W-A C-terminal 12 aa]
protein stability index [1]: 0.657 ± 0.012
protein stability index (genetic background: wild type): 0.159 ± 0.017

KNLTRTSVSFIG [TRS85 C-terminal 12 aa]
protein stability index [1]: 0.7307 ± 0.0033
protein stability index (genetic background: wild type): 0.702 ± 0.037

RTANVVGLDVPT [FMC1 C-terminal 12 aa]
protein stability index [1]: 0.683 ± 0.017
protein stability index (genetic background: wild type): 0.6639 ± 0.0044

KFQDVLDNFLQG [ETT1 C-terminal 12 aa]
protein stability index [1]: 0.713 ± 0.019
protein stability index (genetic background: wild type): 0.685 ± 0.01

FRSQRLHMDSKP [BUD27 C-terminal 12 aa]
protein stability index [1]: 0.727 ± 0.018
protein stability index (genetic background: wild type): 0.6682 ± 0.0053

APDNGPTVEEVD [SSA4 C-terminal 12 aa]
protein stability index [1]: 0.69 ± 0.0087
protein stability index (genetic background: wild type): 0.662 ± 0.023

IKNSSLAVLHST [YKL162C C-terminal 12 aa]
protein stability index [1]: 0.705 ± 0.021
protein stability index (genetic background: wild type): 0.205 ± 0.019

EKVRNEGFIKNP [GPM2 C-terminal 12 aa]
protein stability index [1]: 0.716 ± 0.03
protein stability index (genetic background: wild type): 0.702 ± 0.075

DLASFIKKSLSS [TML25 C-terminal 12 aa]
protein stability index [1]: 0.694 ± 0.017
protein stability index (genetic background: wild type): 0.734 ± 0.032

DVFEEIGYSMKD [SAE3 C-terminal 12 aa]
protein stability index [1]: 0.715 ± 0.0034
protein stability index (genetic background: wild type): 0.789 ± 0.041

SNSNQHFGNVTF [IME2 C-terminal 12 aa]
protein stability index [1]: 0.713 ± 0.0014
protein stability index (genetic background: wild type): 0.6829 ± 0.0059

DILGFKIAPRSA [YGR210C C-terminal 12 aa]
protein stability index [1]: 0.682 ± 0.049
protein stability index (genetic background: wild type): 0.7073 ± 0.0013

SVTSGSANFVFY [UTH1 C-terminal 12 aa]
protein stability index [1]: 0.7081 ± 0.0034
protein stability index (genetic background: wild type): 0.7 ± 0.019
